Data: patent US20090246142A1, “Triggered Self-Assembly of Nanoparticles In Vivo” (MASSACHUSETTS INSTITUTE OF TECHNOLOGY, priority 2006, published 2009)

Biological target: TAMRA-C(Ahx)QpYDHPNI-CONH2 (CRK SH2-binding phosphopeptide) on nanoparticles (pY-peptide TSACs)
Assay: DLS of nanoparticle assembly, 12 nM TSACs, both partners polyvalent on particles

Q: With “Crk SH2 domain with an N-terminal cysteine (cys-SH2), conjugated to iron oxide nanoparticles (SH2 TSACs) (from UniProt P46108 13-118)” as the substance, how does the hydrodynamic radius increase read?
A: The hydrodynamic radius increase was 10 fold.
